The text below walks through data of paper PMC12403168, “Revisiting the co-crystal structure of a DNA glycosylase with photocaged substrate: a suitable time-resolved crystallography target?”.

The target of series [1] is T1, hOgg1 N149C (8-oxoguanine DNA glycosylase) (Homo sapiens, UniProt O15527 12-327, N149C). The series can be described thus: X-ray crystallography; disulfide cross-linked complex, illuminated 365 nm (95 J) and cryotrapped (G*Olight), oG in active site at 68% occupancy, Ca2+ present, 2.48 A; Complex formation: 20 mM Tris-HCl, 100 mM NaCl, 1 mM EDTA pH 7.4, on ice overnight (12 nmol DNA, 24 nmol protein in 1.2 ml); purified by anion exchange and SEC; crystallized at 13 mg/ml. Particulars: protein: recombinant; tags: His-tag (pET28a, NdeI/XhoI); 5' overhang 1 nt on each strand.

Series [2] has as its target T1, hOgg1 N149C (8-oxoguanine DNA …). The series can be described thus: X-ray crystallography; disulfide cross-linked complex, dark (G*Odark), 2.81 A; Complex formation: 20 mM Tris-HCl, 100 mM NaCl, 1 mM EDTA pH 7.4, on ice overnight (12 nmol DNA, 24 nmol protein in 1.2 ml); purified by anion exchange and SEC; crystallized at 13 mg/ml. Particulars: protein: recombinant; tags: His-tag (pET28a, NdeI/XhoI); 5' overhang 1 nt on each strand.

T1 sequence (O15527 12-327 N149C): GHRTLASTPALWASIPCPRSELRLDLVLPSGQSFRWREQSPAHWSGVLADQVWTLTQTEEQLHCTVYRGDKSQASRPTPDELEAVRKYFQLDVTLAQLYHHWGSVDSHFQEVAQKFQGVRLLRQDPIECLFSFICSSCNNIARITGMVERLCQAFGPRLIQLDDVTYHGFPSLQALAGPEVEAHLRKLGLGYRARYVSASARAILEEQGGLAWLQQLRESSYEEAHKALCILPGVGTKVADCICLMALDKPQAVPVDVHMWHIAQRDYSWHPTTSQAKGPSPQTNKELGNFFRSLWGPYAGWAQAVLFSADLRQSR

B1: oG/C‡ duplex, uncaged in crystallo by 365 nm light (dsDNA)
DNA 1: AGCGTCCAGGTCTACC
DNA 2: TGGTAGACCTGGACGC
modifications: strand 1 G9 = 8-oxoguanine (oG) after photodeprotection; strand 2 C9 = N4-modified cytosine (C‡), disulfide to Cys149
Take B1: in series [1], the binding result is reported as “binds”.

B2: oG*/C‡ duplex (Table S1 entries 3 and 5) (dsDNA)
DNA 1: AGCGTCCAGGTCTACC
DNA 2: TGGTAGACCTGGACGC
modifications: strand 1 G9 = photocaged 8-oxoguanine (oG*); strand 2 C9 = N4-modified cytosine (C‡) for disulfide cross-linking
As for B2, in series [2], the binding result is given as “binds”.
